± gives the uncertainty stated by the source.

This note sets out measurements from the Human Domainome abundance scans (Beltran et al. 2025).

B1: Ankyrin repeat and SOCS box protein 14, residues 532 to 572; numbered along this chain, A6NK59 (parent)
chain: RSLKHLCRLKIRKCMGRLHLRCPVFMSFLPLPNRLKAYVLY

Variants of B1 are the subject of this series. Description: abundance fitness (aPCA) (normalised: wild type 0, dead -1); higher = more abundant; growth selection in yeast, the domain comes from the species named. The conditions noted are these: Homo sapiens.
In the case of RSLKHLCRLEIRKCMGRLHLRCPVFMSFLPLPNRLKAYVLY [K10E], the abundance fitness is -0.208 ± 0.053.

For RSLKHLCRLQIRKCMGRLHLRCPVFMSFLPLPNRLKAYVLY [K10Q], the abundance fitness is -0.107 ± 0.065.

On to RSLKHLCRLHIRKCMGRLHLRCPVFMSFLPLPNRLKAYVLY [K10H], for which the abundance fitness was -0.559 ± 0.27.

As for RSLKHLCRLRIRKCMGRLHLRCPVFMSFLPLPNRLKAYVLY [K10R], the abundance fitness was -0.393 ± 0.048.

Regarding RSLKHLCRLDIRKCMGRLHLRCPVFMSFLPLPNRLKAYVLY [K10D], the abundance fitness was -0.319 ± 0.17.

For RSLKHLCRLTIRKCMGRLHLRCPVFMSFLPLPNRLKAYVLY [K10T], the abundance fitness came out at 0.039 ± 0.057.

In the case of RSLKHLCRLLIRKCMGRLHLRCPVFMSFLPLPNRLKAYVLY [K10L], the abundance fitness was 0.445 ± 0.051.

For RSLKHLCRLAIRKCMGRLHLRCPVFMSFLPLPNRLKAYVLY [K10A], the abundance fitness was 0.352 ± 0.049.

Consider RSLKHLCRLGIRKCMGRLHLRCPVFMSFLPLPNRLKAYVLY [K10G], for which the abundance fitness was -0.066 ± 0.05.

As for RSLKHLCRLMIRKCMGRLHLRCPVFMSFLPLPNRLKAYVLY [K10M], the abundance fitness is 0.439 ± 0.078.

Consider RSLKHLCRLVIRKCMGRLHLRCPVFMSFLPLPNRLKAYVLY [K10V], for which the abundance fitness is 0.406 ± 0.052.

As to RSLKHLCRLCIRKCMGRLHLRCPVFMSFLPLPNRLKAYVLY [K10C], the abundance fitness was -0.193 ± 0.087.

As to RSLKHLCRLYIRKCMGRLHLRCPVFMSFLPLPNRLKAYVLY [K10Y], the abundance fitness is 0.168 ± 0.11.

Consider RSLKHLCRSKIRKCMGRLHLRCPVFMSFLPLPNRLKAYVLY [L9S], for which the abundance fitness turned out to be 0.012 ± 0.052.

As to RSLKHLCRQKIRKCMGRLHLRCPVFMSFLPLPNRLKAYVLY [L9Q], the abundance fitness turned out to be 0.156 ± 0.089.

Take RSLKHLCRMKIRKCMGRLHLRCPVFMSFLPLPNRLKAYVLY [L9M]: the abundance fitness is 0.076 ± 0.16.

Regarding RSLKHLCRKKIRKCMGRLHLRCPVFMSFLPLPNRLKAYVLY [L9K], the abundance fitness is -0.234 ± 0.088.

In the case of RSLKHLCRVKIRKCMGRLHLRCPVFMSFLPLPNRLKAYVLY [L9V], the abundance fitness is -0.22 ± 0.055.

In the case of RSLKHLCRRKIRKCMGRLHLRCPVFMSFLPLPNRLKAYVLY [L9R], the abundance fitness is -0.205 ± 0.048.

Regarding RSLKHLCRTKIRKCMGRLHLRCPVFMSFLPLPNRLKAYVLY [L9T], the abundance fitness amounted to 0.118 ± 0.089.

Take RSLKHLCRPKIRKCMGRLHLRCPVFMSFLPLPNRLKAYVLY [L9P]: the abundance fitness is -0.866 ± 0.18.

On to RSLKHLCRWKIRKCMGRLHLRCPVFMSFLPLPNRLKAYVLY [L9W], for which the abundance fitness is -0.235 ± 0.051.

RSLKHLCRLKIRKCMGPLHLRCPVFMSFLPLPNRLKAYVLY [R17P]: the abundance fitness is -0.06 ± 0.082.

Consider RSLKHLCRLKIRKCMGKLHLRCPVFMSFLPLPNRLKAYVLY [R17K], for which the abundance fitness came to 0.046 ± 0.068.

For RSLKHLCRLKIRKCMGQLHLRCPVFMSFLPLPNRLKAYVLY [R17Q], the abundance fitness was found to be 0.13 ± 0.07.

Turning to RSLKHLCRLKIRKCMGMLHLRCPVFMSFLPLPNRLKAYVLY [R17M], the abundance fitness was 0.079 ± 0.085.

Turning to RSLKHLCRLKIRKCMGGLHLRCPVFMSFLPLPNRLKAYVLY [R17G], the abundance fitness was 0.293 ± 0.048.

Turning to RSLKHLCRLKIRKCMGDLHLRCPVFMSFLPLPNRLKAYVLY [R17D], the abundance fitness was -0.07 ± 0.23.

Consider RSLKHLCRLKIRKCMGFLHLRCPVFMSFLPLPNRLKAYVLY [R17F], for which the abundance fitness was found to be 0.551 ± 0.24.

RSLKHLCRLKIRKCMGNLHLRCPVFMSFLPLPNRLKAYVLY [R17N]: the abundance fitness is -0.326 ± 0.15.

As to RSLKHLCRLKIRKCMGCLHLRCPVFMSFLPLPNRLKAYVLY [R17C], the abundance fitness was determined as 0.153 ± 0.12.

In the case of RSLKHLCRLKIRKCMGSLHLRCPVFMSFLPLPNRLKAYVLY [R17S], the abundance fitness came out at 0.227 ± 0.051.

Take RSLKHLCRLKIRKCMGLLHLRCPVFMSFLPLPNRLKAYVLY [R17L]: the abundance fitness was 0.17 ± 0.065.

Regarding RSLKHLCRLKIRKCMGELHLRCPVFMSFLPLPNRLKAYVLY [R17E], the abundance fitness came out at 0.103 ± 0.053.

On to RSLKHLCRLKIRKCMGILHLRCPVFMSFLPLPNRLKAYVLY [R17I], for which the abundance fitness was -0.203 ± 0.42.

For RSLKHLCRLKIRKCMGHLHLRCPVFMSFLPLPNRLKAYVLY [R17H], the abundance fitness turned out to be 0.104 ± 0.086.

On to RSLKHLCRLKIRKCMGTLHLRCPVFMSFLPLPNRLKAYVLY [R17T], for which the abundance fitness was -0.038 ± 0.063.

As to RSLKHLCRLKIRKCMGALHLRCPVFMSFLPLPNRLKAYVLY [R17A], the abundance fitness was found to be 0.371 ± 0.054.

Regarding RSLKHLCRLKIRKLMGRLHLRCPVFMSFLPLPNRLKAYVLY [C14L], the abundance fitness was 0.431 ± 0.066.

Take RSLKHLCRLKIRKMMGRLHLRCPVFMSFLPLPNRLKAYVLY [C14M]: the abundance fitness worked out at 0.308 ± 0.067.

RSLKHLCRLKIRKWMGRLHLRCPVFMSFLPLPNRLKAYVLY [C14W]: the abundance fitness is 0.462 ± 0.048.

For the variant RSLKHLCRLKIRKRMGRLHLRCPVFMSFLPLPNRLKAYVLY [C14R], the abundance fitness is -0.264 ± 0.047.

On to RSLKHLCRLKIRKSMGRLHLRCPVFMSFLPLPNRLKAYVLY [C14S], for which the abundance fitness was -0.155 ± 0.084.

Take RSLKHLCRLKIRKVMGRLHLRCPVFMSFLPLPNRLKAYVLY [C14V]: the abundance fitness was 0.376 ± 0.057.

With RSLKHLCRLKIRKAMGRLHLRCPVFMSFLPLPNRLKAYVLY [C14A], the abundance fitness was 0.273 ± 0.046.

As to RSLKHLCRLKIRKHMGRLHLRCPVFMSFLPLPNRLKAYVLY [C14H], the abundance fitness was -0.373 ± 0.13.

As to RSLKHLCRLKIRKEMGRLHLRCPVFMSFLPLPNRLKAYVLY [C14E], the abundance fitness is -0.024 ± 0.076.

Take RSLKHLCRLKIRKPMGRLHLRCPVFMSFLPLPNRLKAYVLY [C14P]: the abundance fitness is -0.3 ± 0.07.

With RSLKHLCRLKIRKKMGRLHLRCPVFMSFLPLPNRLKAYVLY [C14K], the abundance fitness is -0.165 ± 0.093.

Regarding RSLKHLCRLKIRKGMGRLHLRCPVFMSFLPLPNRLKAYVLY [C14G], the abundance fitness was -0.076 ± 0.043.

Regarding RSLKHLCRLKIRKDMGRLHLRCPVFMSFLPLPNRLKAYVLY [C14D], the abundance fitness came out at 0.014 ± 0.12.

In the case of RSLKHLCRLKIRPCMGRLHLRCPVFMSFLPLPNRLKAYVLY [K13P], the abundance fitness is -0.434 ± 0.099.

As to RSLKHLCRLKIRMCMGRLHLRCPVFMSFLPLPNRLKAYVLY [K13M], the abundance fitness is -0.09 ± 0.1.

On to RSLKHLCRLKIRRCMGRLHLRCPVFMSFLPLPNRLKAYVLY [K13R], for which the abundance fitness was 0.048 ± 0.058.

Consider RSLKHLCRLKIRLCMGRLHLRCPVFMSFLPLPNRLKAYVLY [K13L], for which the abundance fitness is -0.241 ± 0.048.

On to RSLKHLCRLKIRGCMGRLHLRCPVFMSFLPLPNRLKAYVLY [K13G], for which the abundance fitness amounted to 0.045 ± 0.044.

Regarding RSLKHLCRLKIRQCMGRLHLRCPVFMSFLPLPNRLKAYVLY [K13Q], the abundance fitness is 0.086 ± 0.088.

As for RSLKHLCRLKIRYCMGRLHLRCPVFMSFLPLPNRLKAYVLY [K13Y], the abundance fitness is -0.179 ± 0.2.

Consider RSLKHLCRLKIRSCMGRLHLRCPVFMSFLPLPNRLKAYVLY [K13S], for which the abundance fitness was -0.031 ± 0.058.

For the variant RSLKHLCRLKIRVCMGRLHLRCPVFMSFLPLPNRLKAYVLY [K13V], the abundance fitness is -0.236 ± 0.05.

Regarding RSLKHLCRLKIRICMGRLHLRCPVFMSFLPLPNRLKAYVLY [K13I], the abundance fitness is -0.091 ± 0.09.
